This data set in a line: background-corrected fluorescence of 3'-dye-labeled ssDNA relative to brightest sequence (3'-GCGCG) (fraction); higher = brighter dye fluorescence (less quenching). The gist of the method: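 Single-stranded DNA was built on glass slides by light-directed phosphoramidite synthesis, ending in a 3' Cy3 or Cy5 dye beside each of 1024 permuted pentamers. Arrays were washed in acetonitrile for 2 h at r.t., then scanned at 532 or 635 nm before and after overnight ethylenediamine/ethanol deprotection. Each value averages 10 features per array and at least 3 syntheses. Fluorescence, corrected by subtracting unlabeled-oligo background, is scaled to the brightest sequence.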

± gives the standard error.

In the case of “TTTTTTGCTCAGCATGCTGATTTTTTTTTTTTTTTAGTAC [CATGA]”, the background-corrected fluorescence was 0.485 ± 0.006 (dye: Cy3 (3' terminal)) and 0.371 ± 0.027 (dye: Cy5 (3' terminal)).
Consider “TTTTTTGCTCAGCATGCTGCTTTTTTTTTTTTTTTAGTAA [AATGA]”, for which the background-corrected fluorescence is, setting by setting: (dye: Cy3 (3' terminal)) 0.563 ± 0.016; (dye: Cy5 (3' terminal)) 0.493 ± 0.037.
On the same counts, the results for “TTTTTTGCTCATCAGCAGCATTTTTTTTTTTTTTTAGGTT [TTGGA]” are 0.584 ± 0.022 and 0.464 ± 0.08.
On the same counts, the results for “TTTTTTGCTCATCAGCATCATTTTTTTTTTTTTTTAGGTG [GTGGA]” are 0.585 ± 0.025 and 0.482 ± 0.017.
The corresponding values for “TTTTTTGCTCATCAGCATGATTTTTTTTTTTTTTTAGGTC [CTGGA]” are 0.459 ± 0.014 and 0.376 ± 0.019.
For the sequence “TTTTTTGCTCATCAGCATGCTTTTTTTTTTTTTTTAGGTA [ATGGA]”, the background-corrected fluorescence is, setting by setting: (dye: Cy3 (3' terminal)) 0.564 ± 0.027; (dye: Cy5 (3' terminal)) 0.465 ± 0.06.
The corresponding values for “TTTTTTGCTCATCATCAGCATTTTTTTTTTTTTTTAGGGT [TGGGA]” are 0.7155 ± 0.0051 and 0.587 ± 0.027.
On the same counts, the results for “TTTTTTGCTCATCATCATCATTTTTTTTTTTTTTTAGGGG [GGGGA]” are 0.69 ± 0.019 and 0.591 ± 0.028.
On the same counts, the results for “TTTTTTGCTCATCATCATGATTTTTTTTTTTTTTTAGGGC [CGGGA]” are 0.598 ± 0.023 and 0.478 ± 0.064.
Consider “TTTTTTGCTCATCATCATGCTTTTTTTTTTTTTTTAGGGA”, for which the background-corrected fluorescence reads like this: (dye: Cy3 (3' terminal)) 0.707 ± 0.036; (dye: Cy5 (3' terminal)) 0.642 ± 0.037.
For the sequence “TTTTTTGCTCATCATGAGCATTTTTTTTTTTTTTTAGGCT [TCGGA]”, the background-corrected fluorescence stood at 0.596 ± 0.014 (dye: Cy3 (3' terminal)) and 0.435 ± 0.028 (dye: Cy5 (3' terminal)).
Regarding “TTTTTTGCTCATCATGATCATTTTTTTTTTTTTTTAGGCG [GCGGA]”, the background-corrected fluorescence reads like this: (dye: Cy3 (3' terminal)) 0.633 ± 0.026; (dye: Cy5 (3' terminal)) 0.521 ± 0.049.
On the same counts, the results for “TTTTTTGCTCATCATGATGATTTTTTTTTTTTTTTAGGCC [CCGGA]” are 0.479 ± 0.037 and 0.368 ± 0.064.
With “TTTTTTGCTCATCATGATGCTTTTTTTTTTTTTTTAGGCA [ACGGA]”, the background-corrected fluorescence was determined as 0.584 ± 0.0074 (dye: Cy3 (3' terminal)) and 0.463 ± 0.017 (dye: Cy5 (3' terminal)).
As to “TTTTTTGCTCATCATGCGCATTTTTTTTTTTTTTTAGGAT”, the background-corrected fluorescence by setting is: (dye: Cy3 (3' terminal)) 0.637 ± 0.019; (dye: Cy5 (3' terminal)) 0.463 ± 0.028.
As to “TTTTTTGCTCATCATGCTCATTTTTTTTTTTTTTTAGGAG [GAGGA]”, the background-corrected fluorescence is, setting by setting: (dye: Cy3 (3' terminal)) 0.597 ± 0.023; (dye: Cy5 (3' terminal)) 0.507 ± 0.034.
The corresponding values for “TTTTTTGCTCATCATGCTGATTTTTTTTTTTTTTTAGGAC [CAGGA]” are 0.479 ± 0.014 and 0.383 ± 0.033.
As to “TTTTTTGCTCATCATGCTGCTTTTTTTTTTTTTTTAGGAA [AAGGA]”, the background-corrected fluorescence by setting is: (dye: Cy3 (3' terminal)) 0.648 ± 0.0081; (dye: Cy5 (3' terminal)) 0.559 ± 0.021.
The corresponding values for “TTTTTTGCTCATGAGCAGCATTTTTTTTTTTTTTTAGCTT [TTCGA]” are 0.551 ± 0.021 and 0.419 ± 0.041.
“TTTTTTGCTCATGAGCATCATTTTTTTTTTTTTTTAGCTG [GTCGA]”: the background-corrected fluorescence (dye: Cy3 (3' terminal)) is 0.524 ± 0.005 and the background-corrected fluorescence (dye: Cy5 (3' terminal)) is 0.424 ± 0.058.
Take “TTTTTTGCTCATGAGCATGATTTTTTTTTTTTTTTAGCTC [CTCGA]”: the background-corrected fluorescence was determined as 0.408 ± 0.042 (dye: Cy3 (3' terminal)) and 0.323 ± 0.024 (dye: Cy5 (3' terminal)).
On the same counts, the results for “TTTTTTGCTCATGAGCATGCTTTTTTTTTTTTTTTAGCTA [ATCGA]” are 0.512 ± 0.0099 and 0.4 ± 0.019.
In the case of “TTTTTTGCTCATGATCAGCATTTTTTTTTTTTTTTAGCGT [TGCGA]”, the background-corrected fluorescence is 0.679 ± 0.022 (dye: Cy3 (3' terminal)) and 0.52 ± 0.023 (dye: Cy5 (3' terminal)).
On the same counts, the results for “TTTTTTGCTCATGATCATCATTTTTTTTTTTTTTTAGCGG [GGCGA]” are 0.716 ± 0.013 and 0.577 ± 0.042.
On the same counts, the results for “TTTTTTGCTCATGATCATGATTTTTTTTTTTTTTTAGCGC [CGCGA]” are 0.65 ± 0.023 and 0.523 ± 0.038.
On the same counts, the results for “TTTTTTGCTCATGATCATGCTTTTTTTTTTTTTTTAGCGA” are 0.708 ± 0.033 and 0.58 ± 0.052.
Take “TTTTTTGCTCATGATGAGCATTTTTTTTTTTTTTTAGCCT [TCCGA]”: the background-corrected fluorescence turned out to be 0.481 ± 0.039 (dye: Cy3 (3' terminal)) and 0.394 ± 0.083 (dye: Cy5 (3' terminal)).
The sequence “TTTTTTGCTCATGATGATCATTTTTTTTTTTTTTTAGCCG [GCCGA]” returned a background-corrected fluorescence (dye: Cy3 (3' terminal)) of 0.554 ± 0.018 and a background-corrected fluorescence (dye: Cy5 (3' terminal)) of 0.437 ± 0.029.
Take “TTTTTTGCTCATGATGATGATTTTTTTTTTTTTTTAGCCC [CCCGA]”: the background-corrected fluorescence came out at 0.393 ± 0.022 (dye: Cy3 (3' terminal)) and 0.304 ± 0.018 (dye: Cy5 (3' terminal)).

The record behind these values is the supplement of paper PMC9428881.
